This sample holds only a part of the variants without activity.
How the values were obtained:
biotinyl-Val-oxazolone = assay: self-aminoacylation, catalytic enhancement (BVO) (fold over background); higher = more active; k-Seq, kA / k0A0; sequences stand for … in GGGAAUGGAUCCACAUCUACGAAUUC…UUCACUGCAGACUUGACGAAGCUG
In short: (§1)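 Catalytic enhancement equals the median kA over the uncatalyzed rate, the latter read from the low-activity peak of a bimodal Gaussian fit. Values of kA came from fitting each sequence's fraction reacted to a pseudo-first-order model, with 1000 bootstraps. Reacted RNA was captured with streptavidin and quantified by triplicate qPCR and Illumina sequencing after 90 minutes at room temperature with 2–1250 μM biotinyl-aminoacyl-oxazolone and 0.43 μM mutagenized RNA pools bearing a 21-nt variable region.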

biotinyl-Met-oxazolone = assay: self-aminoacylation, catalytic enhancement (BMO) (fold over background); higher = more active; k-Seq, kA / k0A0; sequences stand for … in GGGAAUGGAUCCACAUCUACGAAUUC…UUCACUGCAGACUUGACGAAGCUG
In short: as §1

biotinyl-Phe-oxazolone = assay: self-aminoacylation, catalytic enhancement (BFO) (fold over background); higher = more active; k-Seq, kA / k0A0; sequences stand for … in GGGAAUGGAUCCACAUCUACGAAUUC…UUCACUGCAGACUUGACGAAGCUG
In short: as §1

biotinyl-Leu-oxazolone = assay: self-aminoacylation, catalytic enhancement (BLO) (fold over background); higher = more active; k-Seq, kA / k0A0; sequences stand for … in GGGAAUGGAUCCACAUCUACGAAUUC…UUCACUGCAGACUUGACGAAGCUG
In short: as §1

biotinyl-Ile-oxazolone = assay: self-aminoacylation, catalytic enhancement (BIO) (fold over background); higher = more active; k-Seq, kA / k0A0; sequences stand for … in GGGAAUGGAUCCACAUCUACGAAUUC…UUCACUGCAGACUUGACGAAGCUG
In short: as §1

biotinyl-Trp-oxazolone = assay: self-aminoacylation, catalytic enhancement (BWO) (fold over background); higher = more active; k-Seq, kA / k0A0; sequences stand for … in GGGAAUGGAUCCACAUCUACGAAUUC…UUCACUGCAGACUUGACGAAGCUG
In short: as §1

Sequence	self-aminoacylation (biotinyl-Val-oxazolone)	self-aminoacylation (biotinyl-Met-oxazolone)	self-aminoacylation (biotinyl-Phe-oxazolone)	self-aminoacylation (biotinyl-Leu-oxazolone)	self-aminoacylation (biotinyl-Ile-oxazolone)	self-aminoacylation (biotinyl-Trp-oxazolone)
CCACACUUGAAGGAAUCGGUC [Fam1B.1 aminoacylation ribozyme variant]	1.39	1.39	1.23	1.55	1.28	1.71
AAGUUUGCUUAGAGUCGCAAG [Fam3.1 aminoacylation ribozyme variant]	0.785	0.757	0.969	0.592	0.725	1
CUCCACUUCAAGCAAUCGGUC [Fam1B.1 aminoacylation ribozyme variant]	1.45	1.27	50.4	2.07	1.37	27.6
ACUUACCUAGGUCAUCGGGUG [Fam2.2 aminoacylation ribozyme variant]	5.61	10.6	48.7	10.8	7.28	10.1
CUACAUCAAACAAUCCGUCUG [Fam1A.1 aminoacylation ribozyme variant]	0.877	0.759	0.983	0.755	0.905	0.615
AAGUUUGCUUAUAGUCGCUAG [Fam3.1 aminoacylation ribozyme variant]	0.646	0.705	1	0.628	0.884	0.61
AUUCACCUAGGUUAUCGGCUG [Fam2.2 aminoacylation ribozyme variant]	1.57	1.73	4.24	1.79	1.45	1.44
AAGUCUGCUAGUAGUCGCAAG [Fam3.1 aminoacylation ribozyme variant]	1.06	0.975	1.06	1.44	0.775	0.88
CCACGCUUCAAGCGAUCGGUC [Fam1B.1 aminoacylation ribozyme variant]	1.2	1.14	2.6	1.05	0.888	3.3
CCACACUUGAAGCAAUCGAUC [Fam1B.1 aminoacylation ribozyme variant]	0.612	0.436	0.662	0.407	0.482	0.348
AUUCACUUAGGUCAUCGCGUG [Fam2.2 aminoacylation ribozyme variant]	6.11	11.7	94.5	15	6.03	11.1
AUUCACCUAUGUCAUCGGGUA [Fam2.2 aminoacylation ribozyme variant]	1.79	1.96	1.14	2.41	1.55	1.89
AUUCGCCUAGGGCAUCGGGUG [Fam2.2 aminoacylation ribozyme variant]	3.45	5.3	26.1	5.64	3.24	4.92
AUUCGCCUUGGUCAUCGGGUG [Fam2.2 aminoacylation ribozyme variant]	6.21	8.81	74.5	9.99	5	8.13
AUUACCCAGGUCAUGGAGUGA [Fam2.1 aminoacylation ribozyme variant]	3.01	3.83	8.43	4.67	2.85	4.7
CCACACUUCAAUCAAUCUGUC [Fam1B.1 aminoacylation ribozyme variant]	0.58	0.429	0.748	0.343	0.425	0.342
AACUUUGCUAAUUGUCGCAAG [Fam3.1 aminoacylation ribozyme variant]	2.39	2.71	9.97	2.44	2.78	4.3
AAUCACCUAGCUCAUCGGGUG [Fam2.2 aminoacylation ribozyme variant]	3.17	2.82	17.7	2.31	2.33	3.68
ACACACUUCAAUCAAUCGGUC [Fam1B.1 aminoacylation ribozyme variant]	1.53	1.39	29.4	1.74	1.59	19.8
CUACUUUAAACAAUCGGCCUG [Fam1A.1 aminoacylation ribozyme variant]	1.03	1.24	0.942	0.974	1.2	2.02
CUAAUUCAAACAAUCGGUCUA [Fam1A.1 aminoacylation ribozyme variant]	0.593	0.549	1.65	0.497	0.612	0.635
AAGUUUGCUAAUACCCGCAAG [Fam3.1 aminoacylation ribozyme variant]	0.838	0.577	0.631	0.783	0.909	1.45
AUUGCACUGGUCAUCGAGUGA [Fam2.1 aminoacylation ribozyme variant]	3.93	6.01	32.7	6.88	3.68	6.67
AUUGACCUAAGUCAUCGGGUG [Fam2.2 aminoacylation ribozyme variant]	5.26	7.6	56.8	12.1	5.64	9.4
AUUCAGCUAGAUCAUCGGGUG [Fam2.2 aminoacylation ribozyme variant]	2.85	4.04	26.3	4.61	2.71	3.9
CCAAACUUGAAGCAAUCGGUC [Fam1B.1 aminoacylation ribozyme variant]	0.996	0.87	0.596	0.828	0.898	0.693

Sequence	self-aminoacylation (biotinyl-Val-oxazolone)	self-aminoacylation (biotinyl-Met-oxazolone)	self-aminoacylation (biotinyl-Phe-oxazolone)	self-aminoacylation (biotinyl-Leu-oxazolone)	self-aminoacylation (biotinyl-Ile-oxazolone)	self-aminoacylation (biotinyl-Trp-oxazolone)
CCACACUUCAAGCAGUCGGUC [Fam1B.1 aminoacylation ribozyme variant]	0.878	0.724	1.1	0.783	0.849	0.712
AAGUUUGCAAAUAGUCGCAAG [Fam3.1 aminoacylation ribozyme variant]	0.752	0.734	1.03	0.665	0.763	0.789
AAGUUGGCUAAUAGUUGCAAG [Fam3.1 aminoacylation ribozyme variant]	1.29	1.53	1.86	1.09	1.39	1.92
CCACACUUCAAGCAAUUGGUC [Fam1B.1 aminoacylation ribozyme variant]	0.707	0.625	1.43	0.594	0.702	0.858
AAGUUUGCUAAUUGUUGCAAG [Fam3.1 aminoacylation ribozyme variant]	0.775	0.901	1.11	0.945	0.929	0.926
CUACGUCAAACAAUCGUUCUG [Fam1A.1 aminoacylation ribozyme variant]	0.813	0.854	0.508	0.822	0.789	0.856
AUUACCCUGGUCAUCCAGUGA [Fam2.1 aminoacylation ribozyme variant]	3.42	5.67	28.1	5.76	3.41	6.71
CUAUUUCAAACAAUAGGUCUG [Fam1A.1 aminoacylation ribozyme variant]	1.01	1.11	1.03	1.08	1.25	0.803
GCACACUGCAAGCAAUCGGUC [Fam1B.1 aminoacylation ribozyme variant]	2.12	1.87	1.77	1.87	2.14	2.4
AUUACAAUGGUCAUCGAGUGA [Fam2.1 aminoacylation ribozyme variant]	3.54	6.47	16.6	6.42	3.7	7.87
CUACUUCAAAGAAUCGGUGUG [Fam1A.1 aminoacylation ribozyme variant]	0.803	0.905	1.04	1.28	0.994	1.02
CCACAGUUCAAUCAAUCGGUC [Fam1B.1 aminoacylation ribozyme variant]	0.96	0.905	2.95	0.881	0.806	2.08
AUUCACCUAGGUAAGCGGGUG [Fam2.2 aminoacylation ribozyme variant]	1.48	2.73	14.3	2.75	1.9	2.31
CUAUUUGAAACAAUCGGUCUG [Fam1A.1 aminoacylation ribozyme variant]	0.707	0.815	0.697	0.779	0.803	0.463
CCACACUUAAAGCAAUCCGUC [Fam1B.1 aminoacylation ribozyme variant]	1.17	0.879	0.452	0.838	0.998	0.523
AUUACCCUGGUCAUAGACUGA [Fam2.1 aminoacylation ribozyme variant]	0.991	0.586	0.776	0.739	0.874	0.537
CCAUACUUCAAGCAAUCGAUC [Fam1B.1 aminoacylation ribozyme variant]	0.842	0.45	1.01	0.489	0.666	0.638
UUACUUCAAACAAUCGGCCUG [Fam1A.1 aminoacylation ribozyme variant]	2.3	2.35	95.3	4.03	2.69	43.2
AAAUUUGCUAAUACUCGCAAG [Fam3.1 aminoacylation ribozyme variant]	1.34	1.33	1.63	1.25	1.36	1.51
CCACACGUCAAGCAAUCAGUC [Fam1B.1 aminoacylation ribozyme variant]	0.88	0.665	0.738	0.713	0.647	0.482
AAGUUUGCUAAUAGUCGUAAG [Fam3.1 aminoacylation ribozyme variant]	1.05	1.34	33	0.914	1.19	8.22
AUUCACCAAGGGCAUCGGGUG [Fam2.2 aminoacylation ribozyme variant]	5.01	5.2	35.1	6.01	4.37	4.74
CAUCACCUAGGUCAUCGGGUG [Fam2.2 aminoacylation ribozyme variant]	4.05	6.18	21	6.23	3.15	5.76
AUUCACCUAGGGCAUUGGGUG [Fam2.2 aminoacylation ribozyme variant]	3.49	6.54	42.8	8.05	3.74	6.12
AUUCAGCUCGGUCAUCGGGUG [Fam2.2 aminoacylation ribozyme variant]	5.43	9.53	78.7	9.01	4.88	7.34
